The source of these data is patent US20090191187A1.

The target in the assay is human interleukin-1 receptor on cells (MRC-5 human embryonic lung fibroblasts; human blood cells) (human) (UniProt P14778). Description: cell-based or functional assay.
Sequence of human interleukin-1 receptor on cells (MRC-5 human embryonic lung fibroblasts; human blood cells) (human) (P14778 18-569): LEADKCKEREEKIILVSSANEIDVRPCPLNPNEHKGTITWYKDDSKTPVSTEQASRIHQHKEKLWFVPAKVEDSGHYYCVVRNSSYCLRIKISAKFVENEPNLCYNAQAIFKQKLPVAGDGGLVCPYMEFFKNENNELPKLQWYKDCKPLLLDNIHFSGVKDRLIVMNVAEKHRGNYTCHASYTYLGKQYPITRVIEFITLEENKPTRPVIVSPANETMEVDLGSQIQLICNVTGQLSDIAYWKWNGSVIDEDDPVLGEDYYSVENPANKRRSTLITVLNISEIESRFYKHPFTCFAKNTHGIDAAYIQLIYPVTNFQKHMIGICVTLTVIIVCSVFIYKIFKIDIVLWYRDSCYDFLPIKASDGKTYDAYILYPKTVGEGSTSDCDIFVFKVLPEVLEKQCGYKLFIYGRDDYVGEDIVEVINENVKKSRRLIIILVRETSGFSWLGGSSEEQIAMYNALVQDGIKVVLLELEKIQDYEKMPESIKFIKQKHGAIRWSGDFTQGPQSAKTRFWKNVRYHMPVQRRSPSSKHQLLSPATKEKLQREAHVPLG
Substance “Antigenix Cat.# MC260020, clone R11 (antibody)” came in with an IC-50 (MRC-5 bioassay) greater than 100 ng/mL.

On to “Antigenix Cat.# MC261020, clone R12 (antibody)”, for which the IC-50 (MRC-5 bioassay) was greater than 100 ng/mL. “BD Pharmingen Cat.# 551388, clone HIL1R-M1 (antibody)” had an IC-50 (MRC-5 bioassay) greater than 100 ng/mL. The figure for “Biotrend Cat.# 0100-0242, clone 49/20 (antibody)” is greater than 100 ng/mL; for “Cell Sciences Cat.# CM2028, clone RMHL-1 (antibody)” it is greater than 100 ng/mL; for “PBL Biomedical Laboratories Cat.# 21808-1, clone RMH1R-1 (antibody)” it is 33 ng/mL.

“PBL Biomedical Laboratories Cat.# 21809-1, clone RMH1R-2 (antibody)”: the IC-50 (MRC-5 bioassay) was greater than 100 ng/mL. “R&D Systems Cat.# MAB269, clone 35730 (antibody)”: the IC-50 (MRC-5 bioassay) was greater than 100 ng/mL.
